Our source for the Kd values is patent publication US20220332804A1 (CSL INNOVATION, published 2022).

The target in one experiment is T1, human C2 T442A (human, UniProt P06681 21-752).
T1 sequence: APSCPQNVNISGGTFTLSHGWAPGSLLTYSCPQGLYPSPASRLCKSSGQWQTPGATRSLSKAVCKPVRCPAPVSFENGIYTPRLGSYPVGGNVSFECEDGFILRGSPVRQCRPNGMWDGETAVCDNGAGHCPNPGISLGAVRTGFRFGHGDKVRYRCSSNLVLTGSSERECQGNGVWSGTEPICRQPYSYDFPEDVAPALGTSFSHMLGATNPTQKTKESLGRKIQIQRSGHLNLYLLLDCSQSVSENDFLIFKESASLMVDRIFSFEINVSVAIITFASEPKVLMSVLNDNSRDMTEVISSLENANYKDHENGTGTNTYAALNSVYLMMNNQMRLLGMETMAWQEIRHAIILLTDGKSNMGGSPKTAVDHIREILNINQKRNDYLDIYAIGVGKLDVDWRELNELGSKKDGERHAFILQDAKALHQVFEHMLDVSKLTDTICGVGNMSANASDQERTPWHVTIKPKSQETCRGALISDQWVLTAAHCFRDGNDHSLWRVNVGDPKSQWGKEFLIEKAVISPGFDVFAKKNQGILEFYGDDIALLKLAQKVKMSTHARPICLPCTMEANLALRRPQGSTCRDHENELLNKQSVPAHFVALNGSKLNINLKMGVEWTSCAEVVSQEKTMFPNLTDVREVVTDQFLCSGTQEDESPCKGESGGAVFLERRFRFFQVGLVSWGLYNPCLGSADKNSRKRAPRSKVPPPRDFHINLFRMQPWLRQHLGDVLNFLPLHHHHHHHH
Kind of experiment: SPR, antibody captured, C2 as analyte.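 Further: biacore at 37 °C, anti-C2 mAbs held by immobilised goat anti-human IgG, C2 alanine or serine mutants injected, double-referenced sensorgrams fitted to a 1:1 kinetic or steady-state model.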

The next experiment deals with T2, human C2 L620A (human, UniProt P06681 21-752).
T2 sequence: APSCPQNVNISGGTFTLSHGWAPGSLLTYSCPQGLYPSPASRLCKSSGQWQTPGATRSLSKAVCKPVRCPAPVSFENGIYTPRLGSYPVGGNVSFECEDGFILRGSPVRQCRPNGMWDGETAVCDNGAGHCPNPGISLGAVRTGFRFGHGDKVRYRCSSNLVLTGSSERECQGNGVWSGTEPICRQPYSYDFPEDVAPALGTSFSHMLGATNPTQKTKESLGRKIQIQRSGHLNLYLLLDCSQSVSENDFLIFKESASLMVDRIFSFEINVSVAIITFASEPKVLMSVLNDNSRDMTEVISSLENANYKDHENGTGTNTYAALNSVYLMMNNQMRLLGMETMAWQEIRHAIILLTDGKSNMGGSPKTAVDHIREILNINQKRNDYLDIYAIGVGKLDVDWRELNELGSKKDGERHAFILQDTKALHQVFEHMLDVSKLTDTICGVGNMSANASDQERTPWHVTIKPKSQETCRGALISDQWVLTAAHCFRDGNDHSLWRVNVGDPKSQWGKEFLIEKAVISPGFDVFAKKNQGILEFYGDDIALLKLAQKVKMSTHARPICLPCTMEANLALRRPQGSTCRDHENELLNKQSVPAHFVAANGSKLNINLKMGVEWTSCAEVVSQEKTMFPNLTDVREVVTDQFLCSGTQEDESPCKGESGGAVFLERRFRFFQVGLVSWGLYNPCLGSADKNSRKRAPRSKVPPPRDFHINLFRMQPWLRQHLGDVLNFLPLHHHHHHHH
The experiment can be described thus: SPR, antibody captured, C2 as analyte.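 Further: biacore at 37 °C, anti-C2 mAbs held by immobilised goat anti-human IgG, C2 alanine or serine mutants injected, double-referenced sensorgrams fitted to a 1:1 kinetic or steady-state model.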 For orientation: Surface plasmon resonance follows binding to a sensor surface in real time, without labels.

The target of another experiment is T3, human complement C2 (human, UniProt P06681 21-752).
T3 construct: Recombinant full-length human C2 with C-terminal 8x His tag, purified from Expi293F supernatant; also called human C2; huC2
T3 sequence: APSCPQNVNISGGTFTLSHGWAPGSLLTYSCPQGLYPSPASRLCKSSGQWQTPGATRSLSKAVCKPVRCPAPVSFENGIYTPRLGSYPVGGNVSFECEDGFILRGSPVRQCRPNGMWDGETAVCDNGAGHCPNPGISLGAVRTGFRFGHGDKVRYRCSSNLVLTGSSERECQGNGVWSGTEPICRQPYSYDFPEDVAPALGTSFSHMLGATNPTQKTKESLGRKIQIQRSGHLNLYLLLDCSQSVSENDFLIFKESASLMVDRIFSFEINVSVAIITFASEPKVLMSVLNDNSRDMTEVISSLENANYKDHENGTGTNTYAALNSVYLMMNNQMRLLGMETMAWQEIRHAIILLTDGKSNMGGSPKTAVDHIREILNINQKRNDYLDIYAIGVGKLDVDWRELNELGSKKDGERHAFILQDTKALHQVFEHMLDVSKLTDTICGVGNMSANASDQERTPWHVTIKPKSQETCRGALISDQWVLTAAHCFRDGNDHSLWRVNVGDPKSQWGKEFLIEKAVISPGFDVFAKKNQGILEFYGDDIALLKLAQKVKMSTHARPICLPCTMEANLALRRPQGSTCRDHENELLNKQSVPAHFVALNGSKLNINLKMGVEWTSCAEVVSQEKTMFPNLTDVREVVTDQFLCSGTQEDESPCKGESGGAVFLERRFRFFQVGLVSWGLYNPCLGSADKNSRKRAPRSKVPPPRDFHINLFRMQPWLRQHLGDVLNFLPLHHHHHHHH
The experiment can be described thus: SPR, mAb captured, C2 analyte.

The next experiment concerns the target T4, human C2 I438A (human, UniProt P06681 21-752).
T4 sequence: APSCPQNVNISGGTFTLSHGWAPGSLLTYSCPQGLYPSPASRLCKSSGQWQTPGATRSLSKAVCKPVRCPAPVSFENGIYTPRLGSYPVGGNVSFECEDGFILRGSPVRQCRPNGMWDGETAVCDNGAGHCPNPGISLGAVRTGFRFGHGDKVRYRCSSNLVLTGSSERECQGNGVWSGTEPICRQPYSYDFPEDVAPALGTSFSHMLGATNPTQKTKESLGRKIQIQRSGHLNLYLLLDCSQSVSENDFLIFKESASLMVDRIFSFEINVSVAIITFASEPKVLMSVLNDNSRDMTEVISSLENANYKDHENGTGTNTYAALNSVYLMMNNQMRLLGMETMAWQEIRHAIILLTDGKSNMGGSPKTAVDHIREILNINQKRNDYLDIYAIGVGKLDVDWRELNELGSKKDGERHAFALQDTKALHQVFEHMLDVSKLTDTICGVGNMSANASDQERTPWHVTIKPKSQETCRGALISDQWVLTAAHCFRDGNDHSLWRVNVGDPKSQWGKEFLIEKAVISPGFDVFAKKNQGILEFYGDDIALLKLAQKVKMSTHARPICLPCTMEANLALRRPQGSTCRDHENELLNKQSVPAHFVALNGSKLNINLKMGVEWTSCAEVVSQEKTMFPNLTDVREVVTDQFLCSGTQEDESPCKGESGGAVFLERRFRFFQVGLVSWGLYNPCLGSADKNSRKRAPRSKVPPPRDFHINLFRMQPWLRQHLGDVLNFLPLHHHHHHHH
The experiment can be described thus: SPR, mAb captured, C2 mutant analyte.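 Further: Anti-C2 mAbs captured on goat anti-human IgG Biacore CM5 chips, alanine or serine C2 surface mutants flowed over at 37 °C, double-referenced sensorgrams fitted to a 1:1 binding model.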

B1: RF16-242 (antibody, human IgG4 S228P, lambda, V domains shown)
VH: EVQLLQSGAEVKKPGESLKISCKGSGYSFTSYWIGWVRQMPGKGLEWMGIIYPGDSDTRYSPSFQGQVTISADKSISTAYLQWSSLKASDTAMYYCARRGHYGDYFDYWGQGTLVTVSS
VL: SYELTQPPSVSVSPGQTARITCSGDALPKKYAYWYHQKSGQAPVLVIYEDRRRPSEIPERFSGSSSGTMATLTITGAQVEDEGVYFCYSRDRAGNQRVFGGGTQLTVLG
notes: pH-dependent anti-C2 antibody from a phage display library
For B1, the Kd (in general, the concentration at which binding is half-saturated) was found to be 18 nM with human C2 T442A and 8 nM with human C2 L620A.

B2: RF16-214 (antibody, V domains shown)
VH: EVQLLESGGGLVQPGGSLRLSCAASGFTFSWYQMMWVRQAPGKGLEWVSRIYPSGGGTAYADSVKGRFTISRDNSKNTLYLQMNSLRAEDTAVYYCARDAGYGDNWGQGTLVTVSS
VL: QSALTQPPSVSVSPGQTASITCSGDKLGEKYASWYQQKAGQSPVMVIYQDRKRPSGIPERFSGSNSGNTATLTISGTQAMDEADYYCQAWDTRAVVFGGGTKLTVLG
As for B2, the equilibrium dissociation constant (Kd) with human complement C2 is 31 nM; in the experiment with human C2 I438A it was 30.6 nM.
